Source: PMC6597583

How the values were obtained:
[1] = target: BnCYP18-5 (Brassica napus)
[2] = target: BnCYP18-4 (Brassica napus)
[3] = target: BnCYP19-1 (Brassica napus)
[4] = target: AtCYP19-3 (Arabidopsis thaliana)

cyclosporin A (peptide) was tested, and the IC50 of CsA for inhibition of PPIase activity (protease-coupled assay, substrate Suc-AAPF-pNA, 5 nM protein, 0 to 1000 nM CsA, 4 °C) [1] was 22.4 nM, the IC50 of CsA for inhibition of PPIase activity (protease-coupled assay, substrate Suc-AAPF-pNA, 5 nM protein, 0 to 1000 nM CsA, 4 °C) [2] was 14.2 nM and the IC50 of CsA for inhibition of PPIase activity (protease-coupled assay, substrate Suc-AAPF-pNA, 5 nM protein, 0 to 1000 nM CsA, 4 °C) [3] was 16.6 nM. The IC50 of CsA for inhibition of PPIase activity (protease-coupled assay, substrate Suc-AAPF-pNA, 5 nM protein, 0 to 1000 nM CsA, 4 °C) [4] was 20.4 nM.
